Test results as given in US20240010750A1 (Bayer, published 2024).
Substitutions are numbered along the chain they refer to. Like-named read-outs stand apart in the source and are kept apart here.

T1: human alpha2-Antiplasmin (human, UniProt P08697 40-491)
T1 sequence: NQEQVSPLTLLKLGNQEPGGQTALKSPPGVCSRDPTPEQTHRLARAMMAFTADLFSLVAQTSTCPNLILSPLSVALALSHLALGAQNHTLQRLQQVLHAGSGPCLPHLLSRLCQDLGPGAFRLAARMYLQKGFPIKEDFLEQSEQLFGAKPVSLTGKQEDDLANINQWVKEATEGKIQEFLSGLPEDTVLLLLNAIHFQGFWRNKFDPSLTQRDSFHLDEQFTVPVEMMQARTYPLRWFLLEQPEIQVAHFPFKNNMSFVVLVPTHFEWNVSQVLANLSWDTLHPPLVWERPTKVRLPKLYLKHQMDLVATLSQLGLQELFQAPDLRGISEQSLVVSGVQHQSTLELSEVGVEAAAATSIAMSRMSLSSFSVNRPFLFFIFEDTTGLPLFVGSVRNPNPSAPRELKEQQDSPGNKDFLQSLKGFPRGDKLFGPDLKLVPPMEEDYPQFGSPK

B1: TPP-14318 hIgG1 (antibody, V domains shown)
VH: EVQLLESGGGLVQPGGSLRLSCAASGFTFDDYAMSWVRQAPGKGLEWVSAIGTGGGTYYADSVKGRFTISRDNSKNTLYLQMNSLRAEDTAVYYCAREYYDSSGYYHLEYWGQGTLVTVSS
VL: QSVLTQPPSASGTPGQRVTISCTGSSSNIGATYDVHWYQQLPGTAPKLLIYSNNQRPSGVPDRFSGSKSGTSASLAISGLRSEDEADYYCAAWDWSLSGWVFGGGTKLTVLG
B2: TPP-14323 hIgG1 (antibody, V domains shown)
VH: B1 VH with E109T
VL: B1 VL

Legend:
human alpha2-Antiplasmin [1] = molecular target: T1, human alpha2-Antiplasmin; assay: cell-based or functional assay
human alpha2-Antiplasmin [2] = molecular target: T1, human alpha2-Antiplasmin; assay: ELISA, coated antigen, 2nd exp.
Experimental: (§1) A standard ELISA format was used for analyzing the binding affinity of Fabs of this invention to human and rabbit alpha-2-Antiplasmin, respectively. Antigens were coated to black 384 well Maxisorp microtiter plates (Nunc; catalogue number 460518), diluted to a concentration of 1 μg/ml in 1× Coating Buffer (Candor Bioscience; catalogue number 121125). Plates were incubated overnight at 4° C. After overnight incubation, plates were washed 2× with 50 μl/well using PBS+0.05% Tween 20. Following this, 50 μl/well of blocking buffer (Smart Block; Candor Bioscience; catalogue number 113500) was added and the plates were incubated for 1 hour at room temperature. Afterwards, plates were washed for 3× using […] PBS+0.05% Tween 20 buffer. Fabs of this invention were added at different concentrations in a final volume of 30 μl/well. Plates were incubated for 1 hour at room temperature. Following this incubation step, plates were washed for 3× using 50 μl/well of a PBS+0.05% Tween 20 buffer. For the detection of bound Fabs and full-length antibodies, the anti-Human Lambda Light Chains (Bound and Free)—Peroxidase antibody (Sigma; catalogue number A5175) was diluted by the factor of 1:10.000 in 10% Blocking Buffer. 30 μl/well of this diluted detection antibody was added and plates are incubated for 1 hour at room temperature. Following this incubation step, plates were washed for 3× using 50 μl/well of a PBS+0.05% Tween 20 buffer. As substrate, a mixture of 30 μl/well of 1:1000 diluted Amplex red (Invitrogen; catalogue number 12222; stock solution 10 mM in DMSO) and 1:10.000 of Hydrogen peroxide (Merck; catalogue number 107209; 30% stock solution) was added and the plates incubated for […] in the dark.
(§2) For measurement, the Infinite f500 reader (Tecan) was used. Measurement mode: Fluorescence; Top reading; Ex 535 nm; Em 590 nm.
(§3) According to the methods described in Example 3 and Example 4, antibodies TPP-14323, TPP-14318, TPP-14314, TPP-14313, TPP-14308, TPP-14305, TPP-14303, TPP-14298, and TPP-14293 were tested for their ability to bind to and to block the activity of human alpha2-Antiplasmin in a dose-dependent manner. For each antibody, one dose response curve from two to three independent experiments performed in quadruplicate is shown as example in FIG. 7.1 to FIG. 7.18. (see Table 3.3)

human Plasmin = human Plasmin (human, UniProt P00747 97-580; P00747 581-810, limits assumed); assay: cell-based or functional assay
Sequence of human Plasmin (P00747 97-580 limits assumed, chain 1 of 2): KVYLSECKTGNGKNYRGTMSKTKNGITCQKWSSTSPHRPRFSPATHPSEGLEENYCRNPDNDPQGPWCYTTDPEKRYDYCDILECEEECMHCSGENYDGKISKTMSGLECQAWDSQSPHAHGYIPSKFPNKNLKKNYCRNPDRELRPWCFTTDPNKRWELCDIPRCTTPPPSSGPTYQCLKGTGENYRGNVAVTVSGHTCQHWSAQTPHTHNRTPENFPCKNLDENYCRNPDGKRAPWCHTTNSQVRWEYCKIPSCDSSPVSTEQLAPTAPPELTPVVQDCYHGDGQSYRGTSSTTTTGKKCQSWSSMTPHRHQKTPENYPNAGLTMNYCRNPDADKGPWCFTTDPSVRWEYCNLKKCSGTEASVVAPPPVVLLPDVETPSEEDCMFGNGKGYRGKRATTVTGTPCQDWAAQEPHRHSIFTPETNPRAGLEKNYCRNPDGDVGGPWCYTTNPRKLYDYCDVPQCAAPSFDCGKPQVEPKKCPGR
Sequence of human Plasmin (P00747 581-810 limits assumed, chain 2 of 2): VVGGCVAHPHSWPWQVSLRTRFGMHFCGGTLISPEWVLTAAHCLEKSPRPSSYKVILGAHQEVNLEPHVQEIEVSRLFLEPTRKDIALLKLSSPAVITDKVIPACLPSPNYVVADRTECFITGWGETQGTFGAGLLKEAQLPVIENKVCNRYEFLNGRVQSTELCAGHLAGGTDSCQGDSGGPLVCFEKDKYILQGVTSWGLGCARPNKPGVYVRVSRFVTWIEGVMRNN

human alpha2-Antiplasmin [3] = molecular target: T1, human alpha2-Antiplasmin; assay: ELISA, coated antigen, 3rd exp.
Experimental: as §1, §2, §3

human alpha2-Antiplasmin [4] = molecular target: T1, human alpha2-Antiplasmin; assay: cell-based or functional assay; remark: listed apart in the source
human alpha2-Antiplasmin [5] = molecular target: T1, human alpha2-Antiplasmin; assay: ELISA, coated antigen, 1st exp.
Experimental: as §1, §2, §3

human alpha2-Antiplasmin [6] = molecular target: T1, human alpha2-Antiplasmin; assay: cell-based or functional assay; remark: listed apart in the source

| EC50 (read off the curve); function blocking assay (Example 4), RFU of plasmin substrate cleavage (human alpha2-Antiplasmin [1]) | EC50 (human alpha2-Antiplasmin [2]) | IC50 [M], inhibition of plasmin proteolytic activity (human Plasmin) | EC50 (human alpha2-Antiplasmin [3]) | function blocking activity [IC50 M], 1st exp. (human alpha2-Antiplasmin [4]) | function blocking activity [IC50 M], 2nd exp. (human alpha2-Antiplasmin [4]) | function blocking activity [IC50 M], 3rd exp. (human alpha2-Antiplasmin [4]) | EC50 (human alpha2-Antiplasmin [5]) | EC50 (read off the curve); function blocking assay (Example 4), RFU of plasmin substrate cleavage (human alpha2-Antiplasmin [6]) | Binder |
| --- | --- | --- | --- | --- | --- | --- | --- | --- | --- |
| ~20 nM | 59 nM | > 1e-05 M | 61 nM | 20 nM | 25 nM | 22 nM | 5.7 nM |  | B1 |
|  | 73 nM | > 1e-05 M | 71 nM | 20 nM | 20 nM | 29 nM | 7 nM | ~20 nM | B2 |
